# According to patent publication US20080064079:
# T1: Bz-Ala-Ala-Tyr-Arg-His-Ala-Gly
# T1 chain: AAYRHAG
# Assays:
# [1] = molecular target: T1, Bz-Ala-Ala-Tyr-Arg-His-Ala-Gly
# [2] = molecular target: N-alpha-benzoylated peptides of SEQ ID NOs: 3-19
protein,measurement,setting,value
"trypsin variant Tn K60E, E151H, N143H, D189K (protein) IVGGYTCQENSVPYQVSLNSGYHFCGGSLINDQWVVSAAHCYESRIQVRLGEHNINVLEGNEQFVNAAKIIKHPNFDRKTLNNDIMLIKLSSPVKLNARVATVALPSSCAPAGTQCLISGWGHTLSSGVNHPDLLQCLDAPLLPQADCEASYPGKITDNMVCVGFLEGGKKSCQGDSGGPVVCNGELQGIVSWGYGCALPDNPGVYTKVCNYVDWIQDTIAAN",yield of the transamidation product with Arg-His-Ala-Lys(6-CF)-OH (HPLC),[1],obtained in a yield of >99%
same,"rate of reaction (initial rate of peptide consumption, HPLC)",[2],"has a strong preference for a cleavage site comprising L, F or Y in position P1, R or K in position P1′ and His in position P2′"
